Source: patent US20080216185

Test system: phiC31 integrase (Streptomyces phage phiC31?)
Assay: cell_activity
Settings: for activity: integration of attB plasmid

With “phiC31 attB (pB2H1-DEST derived plasmids)” the activity (fold colonies over random integration) (114 vs 80 colonies with/without integrase, BG01v hESC) was 1.4.
pseudo attP 2q35 showed an activity (BG01v) of 2 clones.
pseudo attP 6p11.2 (PRIM2A intron 5) was tested, and the activity (BG01v) was 5 clones.
For pseudo attP 9q31.2, the activity (BG01v and SA002) was 3 clones.
pseudo attP 13q32.3 (CLYBL intron 2) gave an activity (of 51 integrase-mediated clones, BG01v and SA002) of 17 clones.
“pseudo attP 17q23.3 (TLK2/MRC2 intergenic)” gave an activity (BG01v) of 4 clones.
In the case of pseudo attP 21q21.1, the activity (BG01v) is reported as 2 clones.
